From patent publication US6300312A, “Antagonists of G-protein-coupled receptor” (Hô ;pital Sainte-Justine, priority 2000, dated 2001) come the findings set out here.

The target in test [1] is T1, FP receptor (Homo sapiens, UniProt P43088).
T1 construct: introduced transiently into permeabilized A549 cells; endogenous in cells; host or cells: A549 lung carcinoma cells (ATCC CCL185)
The test is described as follows: Phosphoinositide hydrolysis in A549 cells stably expressing the peptides, stimulated with PGF2α. Type of test: cell-based. The settings on record: peptide stably expressed intracellularly in A549 cells; 1 μM PGF2α, 30 min; n=3; FIG. 1A. The procedure: (§1) A549 lung carcinoma cells (ATCC Accession No.: CCL185, American Type Culture Collection, Rockville, Md. 20852) were cultured in Dulbecco's modified Eagles medium (DMEM) with 10% fetal bovine serum (FBS) and antibiotics, penicillin (10 U/ml) and streptomycin (10 μg/ml) in a humidified atmosphere containing 5% CO2 at 37° C. The cells were trypsinized and plated in 6-well tissue culture dishes at 2×10^5 cells/well, a day before commencing the experiments.
(§2) The expression plasmids carrying the third (PCP-1) and the fourth (PCP-2) intracellular domains were introduced into A549 cells using Transfectamine lipid (GIBCO Life Technologies, Burlington, ON). Three (3) micrograms of DNA and 16 μg of lipid were mixed in 200 μl of water and incubated at room temperature for 45 min. Then, the lipid-DNA complexes were diluted with 0.8 ml of Opti-MEM™ (GIBCO Life Technologies, Burlington, ON). The cells were washed twice with Hank's Balanced Salt Solution and incubated with lipid-DNA complexes for 6 hours. An equal volume of DMEM with 20% FBS was added and the cells were kept in the incubator overnight. On the next day, the medium was replaced with DMEM containing 10% FBS and antibiotics and incubated for another 24 hours. […]

Test [2] has as its target T2, EP1 (Homo sapiens, UniProt P34995).
T2 construct: a related prostaglandin receptor expressed in these cells; endogenous in cells; host or cells: A549 lung carcinoma cells (ATCC CCL185)
T2 sequence (P34995 1-402): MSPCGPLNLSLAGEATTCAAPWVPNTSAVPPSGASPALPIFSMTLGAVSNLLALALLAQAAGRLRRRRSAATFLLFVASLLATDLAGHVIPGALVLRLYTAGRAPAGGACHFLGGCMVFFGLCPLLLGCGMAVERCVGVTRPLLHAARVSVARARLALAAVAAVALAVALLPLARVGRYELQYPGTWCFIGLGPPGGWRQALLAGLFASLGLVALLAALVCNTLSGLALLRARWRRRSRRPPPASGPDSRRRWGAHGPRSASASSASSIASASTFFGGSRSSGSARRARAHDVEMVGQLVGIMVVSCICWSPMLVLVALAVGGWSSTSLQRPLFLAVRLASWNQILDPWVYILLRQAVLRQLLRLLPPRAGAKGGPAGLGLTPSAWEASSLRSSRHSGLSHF
The test is described as follows: Phosphoinositide hydrolysis in A549 cells stably expressing the peptides, stimulated with PGE2. The format is cell-based. The settings on record: peptide stably expressed intracellularly in A549 cells; 1 μM PGE2, 30 min; FIG. 1B. The procedure:
as §1, §2

T1 sequence (P43088 whole entry): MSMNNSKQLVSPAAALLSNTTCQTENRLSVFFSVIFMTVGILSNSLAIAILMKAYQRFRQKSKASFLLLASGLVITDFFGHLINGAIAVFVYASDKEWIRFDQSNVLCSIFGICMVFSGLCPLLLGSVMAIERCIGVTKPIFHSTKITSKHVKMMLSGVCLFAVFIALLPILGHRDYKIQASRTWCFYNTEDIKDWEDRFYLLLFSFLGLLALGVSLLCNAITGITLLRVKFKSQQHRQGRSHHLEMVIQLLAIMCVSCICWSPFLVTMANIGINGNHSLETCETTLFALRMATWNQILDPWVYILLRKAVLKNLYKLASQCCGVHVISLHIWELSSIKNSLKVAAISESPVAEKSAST

With “RKAVLKNLYKLASQCCGVHVISLHIWELSSIKNSLKVAAISESPVAEKSAST (RKAVLKNLYKLASQCCGVHVISLHIWELSSIKNSLKVAAISESPVAEKSAST) [PCP-2, fourth intracellular domain of the human FP receptor, expressed intracellularly from a plasmid]”, the “ligand-stimulated phosphoinositide hydrolysis (fold stimulation over unstimulated controls)” value in test [1] was “inhibited”. Also, in test [2], the “inositol phosphate generation by EP1 receptor on stimulation with PGE2” value is on record as “did not affect”.

With “RVKFKSQQHR QGRSHHLEM (RVKFKSQQHRQGRSHHLEM) [PCP-1, third intracellular domain of the human FP receptor, expressed intracellularly from a plasmid]”, in test [1], the “ligand-stimulated phosphoinositide hydrolysis (fold stimulation over unstimulated controls)” value is listed as “inhibited”. Moreover, in test [2], the “inositol phosphate generation by EP1 receptor on stimulation with PGE2” value is listed as “did not affect”.
